Test results taken from patent US20190112387A1 (ISTITUTO BIOCHIMICO ITALIANO GIOVANNI LORENZINI S P A, published 2019).

B1: mAb W6/800 (antibody, V domains shown)
VH: QVQLQQSGAELMKPGASVKISCKATGYTFSNYWIEWVKQRPGHGLEWIGEILPGSGSTNYNEKLKGKATFTADTSSNTAYMQLSSLTSEDSGVYYCARGGGNYPYYFDYWGQGTTVTVSS
VL: IELMTQSHKFMSTSVGDRVSITCKASQDVGTAVAWYQQKPGQSPKLLIYWASTRHTGVPDRFTGSGSGTDFTLTISNVQSEDLADYFCQQYSSYRTFGAGTKLE
notes: Murine IgG2a purified from hybridoma cultures; they are assigned here by order and by likeness to the humanized VH and VL; also called murine W6/800; parental murine antibody
B2: humanized W6/800 antibody huW6/800 (antibody, V domains shown)
VH: QVQLVQSGAEVKKPGASVKISCKASGYTFSNYWIEWVRQAPGQGLEWMGEILPGSGSTNYNEKLKGRVTSTRDTSISTAYMELSRLRSDDTGVYYCARGGGNYPYYFDYWGQGTTVTVSS
VL: DIQMTQSPSTLSASVGDRVTITCKASQDVGTAVAWYQQKPGKAPKLLIYWASTRHTGVPSRFSGSGSGTEFTLTISSLQPDDFADYFCQQYSSYRTFGAGTKLEIK
notes: also called humanized antibody

Target: T1, human ERBB2 receptor (human, UniProt P04626 23-1255)
T1 construct: whole, on cells; Presented on human breast carcinoma cell lines with different ERBB2 levels; also called HER2; Neu-Erb
Assay: flow cytometry on SK-BR-3 cells (FIG. 7 legend)
Method: Humanized heavy SEQ NO.1 and light chains SEQ. NO.2 or SEQ. […] The cells were cultured in Erlenmeyer flask in incubator at 37° C., 5% CO₂ on a shaker at 120 rpm for at least 14 days. The surnatants were purified through standard protein A resins. […] NO.1 and SEQ.

Binder | binding result
B1 | binds
B2 | binds
